T1: IL-6 receptor (IL-6R), in Jurkat cell membrane extract (UniProt P08887 20-468)
T1 construct: IL-6 receptor in membrane protein or membrane extract of Jurkat cells; also called IL-6Rα; source: Jurkat cells, membrane extract
T1 sequence (looked up): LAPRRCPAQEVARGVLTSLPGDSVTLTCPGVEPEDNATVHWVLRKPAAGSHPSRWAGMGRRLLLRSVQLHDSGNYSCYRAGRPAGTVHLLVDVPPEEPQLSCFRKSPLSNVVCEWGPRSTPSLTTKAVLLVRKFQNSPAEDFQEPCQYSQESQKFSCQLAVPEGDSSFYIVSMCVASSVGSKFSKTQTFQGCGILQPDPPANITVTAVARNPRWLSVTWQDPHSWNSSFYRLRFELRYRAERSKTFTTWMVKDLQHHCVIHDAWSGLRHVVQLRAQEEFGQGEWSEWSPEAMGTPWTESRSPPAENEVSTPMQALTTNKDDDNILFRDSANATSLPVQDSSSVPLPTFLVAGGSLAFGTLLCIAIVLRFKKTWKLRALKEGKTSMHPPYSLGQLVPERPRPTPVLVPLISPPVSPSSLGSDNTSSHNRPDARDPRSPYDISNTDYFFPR


Legend:
[1] = target: T1, IL-6 receptor (IL-6R), in Jurkat cell …; experiment: radioligand binding; competition: Jurkat cell membrane extract and 125I-CTRP4 with different concentrations of unlabeled CTRP4, OSM or IL-6; 24 hours at 4°C, 25% PEG, γ counter; settings: one partner purified
[2] = target: T1, IL-6 receptor (IL-6R), in Jurkat cell …; experiment: radioligand binding; saturation: equivalent quantities of Jurkat cell membrane extract with 2-fold serial dilutions of 125I-CTRP4; nonspecific binding with 500-fold excess of CTRP4; 24 hours at 4°C, 25% PEG, γ counter; settings: one partner purified

Sequence of 125I-CTRP4 (Q9BXJ3 17-329): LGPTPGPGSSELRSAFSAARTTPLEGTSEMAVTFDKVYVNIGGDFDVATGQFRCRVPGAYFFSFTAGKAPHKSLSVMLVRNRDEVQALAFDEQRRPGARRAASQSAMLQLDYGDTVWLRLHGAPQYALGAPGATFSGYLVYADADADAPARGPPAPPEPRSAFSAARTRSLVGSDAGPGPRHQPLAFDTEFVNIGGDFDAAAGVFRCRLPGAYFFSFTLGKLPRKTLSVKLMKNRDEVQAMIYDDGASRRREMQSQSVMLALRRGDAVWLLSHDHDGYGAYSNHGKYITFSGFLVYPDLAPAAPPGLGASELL

Row | IC50 [1] [nM] | Kd [2] [nM] | Binder
1 | 77.2 | – | rhCTRP4 protein (unlabeled) (natural protein, rhCTRP4 protein purified from CTRP4-CHO cells; also called unlabeled CTRP4; recombinant CTRP4 protein) not shown
2 | – | 3.94 | 125I-CTRP4 (natural protein, 125I label (chloramine T), rhCTRP4 protein purified from CTRP4-CHO cells; also called radio-iodinated CTRP4; 125I-labeled CTRP4) not shown

— paper PMC10866667, “CTRP4/interleukin-6 receptor signaling ameliorates autoimmune encephalomyelitis by suppressing Th17 cell differentiation” (The Journal of Clinical Investigation, 2023)
